# According to patent US5268275, “Vitamin K-dependent carboxylase” (The University of North Carolina at Chapel Hill, dated 1993):
# T1: bovine vitamin K-dependent carboxylase (94,000 Mr protein from bovine liver microsomes) (bovine) (UniProt Q07175)
# T1 sequence: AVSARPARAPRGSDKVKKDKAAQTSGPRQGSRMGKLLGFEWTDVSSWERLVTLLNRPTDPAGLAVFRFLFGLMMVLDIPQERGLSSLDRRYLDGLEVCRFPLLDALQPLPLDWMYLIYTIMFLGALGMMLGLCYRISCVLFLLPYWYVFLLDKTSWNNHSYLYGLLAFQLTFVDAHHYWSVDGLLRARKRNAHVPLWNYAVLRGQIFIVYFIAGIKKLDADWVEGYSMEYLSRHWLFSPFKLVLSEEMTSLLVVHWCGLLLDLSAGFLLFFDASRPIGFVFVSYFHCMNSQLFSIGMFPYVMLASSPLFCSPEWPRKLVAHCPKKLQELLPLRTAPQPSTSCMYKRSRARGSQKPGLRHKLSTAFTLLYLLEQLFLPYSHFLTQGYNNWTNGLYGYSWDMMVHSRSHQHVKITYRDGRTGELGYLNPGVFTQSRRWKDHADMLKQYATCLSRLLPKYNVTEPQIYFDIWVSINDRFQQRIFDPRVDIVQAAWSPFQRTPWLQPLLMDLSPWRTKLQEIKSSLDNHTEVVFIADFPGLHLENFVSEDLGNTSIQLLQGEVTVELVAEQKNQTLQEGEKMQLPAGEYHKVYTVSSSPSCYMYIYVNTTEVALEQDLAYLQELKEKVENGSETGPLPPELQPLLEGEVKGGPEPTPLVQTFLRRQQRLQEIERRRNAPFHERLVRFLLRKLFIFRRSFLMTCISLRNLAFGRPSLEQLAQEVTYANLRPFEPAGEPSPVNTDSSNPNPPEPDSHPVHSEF
# T2: bovine vitamin K-dependent carboxylase (94,000 Mr protein from bovine liver microsomes) (bovine, UniProt Q07175)
# T2 sequence: T1 sequence
# Legend:
# [1] = biological target: T1, bovine vitamin K-dependent carboxylase (94,000 Mr protein from bovine liver microsomes) (bovine)
# [2] = biological target: T2, bovine vitamin K-dependent carboxylase …; experiment: competition of cross-linking of 125I-FIXQ/S to the carboxylase, 100-fold excess of proFIX19
# Description: In order to evaluate the binding specificity of FIXQ/S and attain an independent estimate of the molecular weight of the carboxylase, we cross-linked ^125I-FIXQ/S to 60-fold affinity-purified material (FIG. 1, lane 3). […] The minor bands in lane 2 were unaffected by competition (lane 1). By subtracting the molecular weight of FIXQ/S (7,000 M_r) from the estimated size of the cross-linked complex we estimate that the size of the protein to which the FIXQ/S peptide binds is approximately 94,000 M_r.
"specific activity, 14CO2 incorporation into FLEEL (cpm/mg protein/hr) (peptide FLEEL)",stimulation of the incorporation of CO2 into FLEEL [1] [fold],binding result [2],Molecule
2.4e+09,–,–,"bovine vitamin K-dependent carboxylase (94,000 Mr protein from bovine liver microsomes) (from UniProt Q07175) (enzyme)"
–,13,binds,AVFLDHENANKILNRPKRY [Peptide proFIX19]
